Measured values reported in publication PMC3497011.

Assays:
[1] = target: EGFR-GGS, chimeric receptor in which the JM domain is replaced by a (GGS)10 sequence; test: flow cytometry on cells
[2] = target: EGFR-GGS tagged at the C-terminus with a fluorescent protein (EGFR-GGS-YFP and EGFR-GGS-mCherry, co-expressed); test: FRET or BRET
[3] = target: EGFR-GGS, chimeric receptor in which the JM domain is replaced by a (GGS)10 sequence; test: cross-linking

Alexa Fluor 488-labeled EGF (ligand)
ratio of EGFR-GGS-bound ligand to EGFR-bound ligand [1]: 1

EGFR-GGS tagged at the C-terminus with a fluorescent protein (EGFR-GGS-YFP and EGFR-GGS-mCherry, co-expressed) (receptor)
FRET efficiency [2]: 0.25

EGFR-GGS, chimeric receptor in which the JM domain is replaced by a (GGS)10 sequence
cross-linked fraction (no ligand) [3]: 0.42
cross-linked fraction (with EGF) [3]: 0.64
stoichiometry N [3]: 2
